The labels stand for the following.
B1: wt-peptide PTTIYY (non-biotinylated hexapeptide) / His-AGR2 WT (mature AGR2, amino acids 21-175, N-terminal 6xHis tag; plasmid pmAGR2) [human] (parent complex)
chain 1: PTTIYY
chain 2: RDTTVKPGAKKDTKDSRPKLPQTLSRGWGDQLIWTQTYEEALYKSKTSSKPLMIIHHLDECPHSQALKKVFAENKEIQKLAEQFVLLNLVYETTDKHLSPDGQYVPRIMFVDPSLTVRADITGRYSNRLYAYEPADTALLLDNMKKALKLLKTEL
B2: His-AGR2 WT (mature AGR2, amino acids 21-175, N-terminal 6xHis tag; plasmid pmAGR2) [human] / His-EpEX-CO, extracellular domain of EpCAM (amino acids 24-265), N-terminal 6xHis tag [human] (parent complex)
chain 1: B1 chain 2
chain 2: QEECVCENYKLAVNCFVNNNRQCQCTSVGAQNTVICSKLAAKCLVMKAEMNGSKLGRRAKPEGALQNNDGLYDPDCDESGLFKAKQCNGTSMCWCVNTAGVRRTDKDTEITCSERVRTYWIIIELKHKAREKPYDSKSLRTALQKEITTRYQLDPKFITSILYENNVITIDLVQNSSQKTQNDVDIADVAYYFEKDVKGESLFHSKKMDLTVNGEQLDLDPGQTLIYYVDEKAPEFSMQGLK

The variants in one assay derive from B1. The assay is described as follows: competition ELISA (AGR2 binding to immobilised biotinylated peptide A4 with free competitor peptide); 1 μg AGR2; 100 ng competitor peptide; RLU is AGR2 bound to peptide A4, so lower RLU = stronger competitor binding; DMSO (no competitor) est. 79; read off a plot. Background: An ELISA detects its analyte on a solid surface through an enzyme-linked reagent.
With chain 1 P1I, the response is ~7.5 RLU. Consider chain 1 P1W, for which the response is ~9 RLU. On the same count and under the same terms, the same measure for chain 1 P1V: ~11 RLU. Regarding chain 1 P1L, the response was ~15 RLU. Turning to chain 1 P1F, the response was ~6 RLU. In the case of chain 1 P1A, the response was ~6 RLU.

With chain 1 P1G, the response was ~7.5 RLU.

Consider chain 1 P1M, for which the response was ~17 RLU. Regarding chain 1 T2C, the response is ~80 RLU. Regarding chain 1 T2S, the response is ~83 RLU.

Take chain 1 T2A: the response is ~84 RLU.

Consider chain 1 Y6A, for which the response is ~60 RLU. The same measure, in the same setting: as for chain 1 Y6F, the figure is ~25 RLU; as for chain 1 I4M, ~80 RLU. On to chain 1 I4V, for which the response is ~55 RLU. On to chain 1 I4L, for which the response was ~44 RLU. As for chain 1 I4A, the response was ~83 RLU. Same read-out and setting: as for chain 1 T3M, the figure is ~8 RLU; as for chain 1 T3I, ~75 RLU; as for chain 1 T3A, ~6 RLU.

chain 1 T3L: the response was ~66 RLU.

On to chain 1 T3V, for which the response was ~35 RLU.

For the variant chain 1 T3S, the response is ~7 RLU. Regarding chain 1 T3G, the response is ~12 RLU.

In the case of chain 1 Y5W, the response is ~20 RLU. Same read-out and setting: the same measure for chain 1 Y5A: ~84 RLU; for chain 1 Y5F: ~40 RLU.

In another assay the parent is B2. The assay is described as follows: ELISA (His-EpCAM solid phase; His-AGR2 mobile phase); point at 0.5 μg AGR2 (highest dose of the titration); no DTT; read off a plot.
Regarding chain 1 S114A, the response was ~160 RLU. Take chain 1 P113A: the response is ~150 RLU. On to chain 1 D112A, for which the response was ~140 RLU.

Variants of B2 are the subject of another assay. The assay is described as follows: ELISA (His-EpCAM solid phase; His-AGR2 mobile phase); point at 0.5 μg AGR2 (highest dose of the titration); 1 mm DTT at the AGR2-binding stage; read off a plot.
As for chain 1 S114A, the response is ~160 RLU. Still for that read-out and setting: as for chain 1 P113A, the figure is ~35 RLU. Same read-out and setting: as for chain 1 D112A, the figure is ~110 RLU.

Values taken from PMC5880107, “The Sequence-specific Peptide-binding Activity of the Protein Sulfide Isomerase AGR2 Directs Its Stable Binding to the Oncogenic Receptor EpCAM*^([image sbox.jpg])” (Molecular & Cellular Proteomics : MCP, 2018).
